These results are taken from patent US20140113348A1 (CITY OF HOPE, published 2014).

For assay [1], the target named is T1, meditope-enabled M5A (M5A 8M).
T1 construct: Eight point mutations in the light chain; wild-type heavy chain; expressed in NS0 cells; also called meditope-enabled anti-CEA antibody
Kind of assay: SPR. (In general: SPR reads the build-up and loss of mass on a sensor chip optically.)

For assay [2] the target is unchanged. Kind of assay: SPR, kinetic fit, meditope at 10, 2, 0.4 and 0.08 uM over M5A 8M IgG immobilized at 5000 RU.
Assay [3] concerns the target T2, meditope-enabled trastuzumab.
T2 construct: Full IgG expressed in mammalian cells; also called TM; trastuzumab memAb
Kind of assay: SPR; earlier SPR study of paragraph 680, approximate binding constant stated in text.

A further assay concerns the target T3, HER2 on SKBR3 cells (UniProt P04626 23-1255, limits assumed).
T3 construct: whole, on cells; also called HER2-expressing cells (SKBR3)
Description: FACS, SKBR3 cells without antibody. On the technique in general: A flow cytometer gives signals particle by particle.

Assay [4] addresses T1, meditope-enabled M5A (M5A 8M). Description: FACS, LS174T cells with 500 nM AF488 M5A 8M and 9 µM AF647-MPL, 30 min [upper right histogram].
Description: (§1) Cells were washed twice with 0.1% BSA and FACS analysis was performed.
Assay [5] deals with T4, wild-type M5A (anti-CEA antibody).
T4 construct: Humanized antibody with the same backbone as trastuzumab
T4 sequence (light, as listed by the source, chain 1 of 2): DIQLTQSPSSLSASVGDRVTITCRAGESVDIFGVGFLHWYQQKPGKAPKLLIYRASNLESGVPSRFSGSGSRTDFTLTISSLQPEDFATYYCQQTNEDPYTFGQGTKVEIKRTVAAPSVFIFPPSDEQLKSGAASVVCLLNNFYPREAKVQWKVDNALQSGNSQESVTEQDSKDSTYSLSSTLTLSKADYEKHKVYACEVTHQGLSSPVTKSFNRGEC
T4 sequence (heavy, as listed by the source, chain 2 of 2): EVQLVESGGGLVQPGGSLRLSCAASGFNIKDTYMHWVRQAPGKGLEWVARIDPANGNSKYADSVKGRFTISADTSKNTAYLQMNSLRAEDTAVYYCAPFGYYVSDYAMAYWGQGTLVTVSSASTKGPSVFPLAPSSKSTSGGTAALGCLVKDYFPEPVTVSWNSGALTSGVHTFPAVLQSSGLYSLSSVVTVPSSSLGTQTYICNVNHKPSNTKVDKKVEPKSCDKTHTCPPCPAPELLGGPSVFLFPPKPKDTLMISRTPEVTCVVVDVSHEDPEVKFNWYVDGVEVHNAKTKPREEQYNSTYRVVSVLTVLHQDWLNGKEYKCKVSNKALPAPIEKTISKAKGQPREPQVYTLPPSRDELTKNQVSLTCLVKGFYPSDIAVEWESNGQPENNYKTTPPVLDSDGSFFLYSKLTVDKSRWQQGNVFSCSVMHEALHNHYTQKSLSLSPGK
Description: FACS, LS174T cells with 500 nM AF488 wild-type M5A and 9 µM AF647-MPL, 30 min [upper right histogram].
Description: as §1

For assay [6], the target named is T5, wild-type trastuzumab.
T5 construct: also called WT T
T5 sequence (heavy, as listed by the source limits assumed, chain 1 of 2, other chains not shown): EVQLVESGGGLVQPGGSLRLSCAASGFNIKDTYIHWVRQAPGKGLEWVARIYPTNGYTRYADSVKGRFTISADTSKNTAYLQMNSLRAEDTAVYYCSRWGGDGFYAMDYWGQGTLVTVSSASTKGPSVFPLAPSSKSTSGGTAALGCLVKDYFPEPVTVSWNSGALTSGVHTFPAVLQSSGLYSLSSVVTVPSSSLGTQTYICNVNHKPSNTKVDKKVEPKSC
Kind of assay: FACS, SKBR3 cells pre-treated with AF488 wild-type trastuzumab, then 0.1 or 1 µM AF647-MPL (L3), washed extensively.

Assay [7] has as its target T5, wild-type trastuzumab. Kind of assay: FACS, SKBR3 cells pre-bound with WT T, washed, then 0.1 or 1 µM Alexa 647-MPL-5K.

Residue numbers refer to the chain shown, from its start. Bridges are numbered along the chain shown (N, C = ends). Where no end group is shown, it is not given here. [ ]: non-standard residue; d: D form. Dip = N[C@H](C(=O)O)C(c1ccccc1)c1ccccc1

T1 sequence (light, as listed by the source, chain 1 of 2): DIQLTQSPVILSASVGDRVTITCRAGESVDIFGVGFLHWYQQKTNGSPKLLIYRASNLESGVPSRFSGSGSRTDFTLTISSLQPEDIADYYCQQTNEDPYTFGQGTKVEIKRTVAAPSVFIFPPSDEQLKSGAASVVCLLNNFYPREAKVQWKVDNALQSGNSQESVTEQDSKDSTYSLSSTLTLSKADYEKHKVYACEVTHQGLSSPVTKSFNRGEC
T1 sequence (heavy, as listed by the source, chain 2 of 2): as the sequence (heavy, as listed by the source, chain 2 of 2) above
T2 sequence (heavy, as listed by the source limits assumed, chain 1 of 2): as the sequence (heavy, as listed by the source limits assumed, chain 1 of 2, other chains not shown) above, with A40S, V93I counted along it
T2 sequence (light, as listed by the source limits assumed, chain 2 of 2): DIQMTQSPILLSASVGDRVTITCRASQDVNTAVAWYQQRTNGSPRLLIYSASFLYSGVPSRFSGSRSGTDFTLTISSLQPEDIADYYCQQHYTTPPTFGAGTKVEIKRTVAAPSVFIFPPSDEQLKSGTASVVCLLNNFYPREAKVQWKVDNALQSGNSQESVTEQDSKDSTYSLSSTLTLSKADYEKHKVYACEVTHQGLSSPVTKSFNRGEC

B1: cQYN meditope (cyclic CQYNLSSRALKC) (peptide)
peptide: CQYNLSSRALKC
modifications: disulfide 1-12
notes: also called meditope 2
For the molecule B1, the binding result in assay [1] is “binds”.

B2: meditope 18 (C-QFDXSTRRLK-C) (peptide)
peptide: CQFD[Dip]STRRLKC
modifications: disulfide 1-12
notes: also called CQFDA(diphenyl)STRRLKC; 5-diphenyl meditope
By Kd is commonly meant the equilibrium constant for the complex coming apart. Higher therefore signals a looser complex. What is called koff is a measure of how fast the partners let go of each other. A low value points to slow dissociation. What is called kon is the rate constant with which the complex forms. On to B2, for which, in assay [2], the Kd turned out to be 438 nM, the koff is 0.015 s⁻¹ and the kon was found to be 34300 M⁻¹ s⁻¹.

B3: Protein L (single Fab binding domain) (other)
chain: EVTIKVNLIFADGKIQTAEFKGTFEEATAEAYRYAALLAKVNGEYTADLEDGGNHMNIKFAG
notes: also called Protein L (only); protein L alone
The molecule B3 returned a Kd in assay [3] of roughly 500 nM.

B4: meditope 31 (AcC-QFDLSTRRLR-CGGGSK) (peptide)
peptide: Ac-CQFDLSTRRLRCGGGSK
modifications: disulfide 1-12; also: fluorescein attached in labeled form for polarization assay
B4: in assay [1], the binding result is “binds”.

B5: meditope-Protein L fusion protein (MPL), linker GGGGS (designed binder)
chain: SCQFDLSTRRLKCGGGGSEVTIKVNLIFADGKIQTAEFKGTFEEATAEAYRYAALLAKVNGEYTADLEDGGNHMNIKFAG
modifications: the two cysteines cyclized (disulfide)
notes: Labeled with AF647 in cell assays; also called MPL (L3); MPL (WT)
For B5, the binding result is listed as “no binding (tested: 0.1 µM or 1 µM MPL)” with HER2 on SKBR3 cells, “binds” in assay [4], “binds” in assay [5] and “no binding (tested: 1 µM)” with wild-type trastuzumab [6].

B6: meditope-Protein L fusion in which all but one lysine were mutated to arginine or asparagine (MPL-5K) (designed binder)
chain: B5 chain with K12R, K23R, K32N, K39R, K58R
On to B6, for which the figures for the binding result in the assay with HER2 on SKBR3 cells and with wild-type trastuzumab [7] were “no binding” and “no binding (tested: 1 µM)”, respectively.
